According to patent EP4763988A1 (Minghui Pharmaceutical (Hangzhou) Ltd., dated 2025):
Where two headings read alike, the source gives them in different places. Values belong to the binder of their own block, whether it stands above or below them.

Assays:
[1] = target: T1, Human CDCP1, His Tag (KACTUS, Cat.No. CDC-HM101) (human, UniProt Q9H5V8 30-667, limits assumed); test: ELISA, plate-coated CDCP1 His Tag 0.5 ug/mL, four-parameter fit
T1 construct: Bought protein coated on ELISA plates; also called human CDCP1 antigen; CDCP1 antigen; not shown: His tag
T1 sequence (looked up): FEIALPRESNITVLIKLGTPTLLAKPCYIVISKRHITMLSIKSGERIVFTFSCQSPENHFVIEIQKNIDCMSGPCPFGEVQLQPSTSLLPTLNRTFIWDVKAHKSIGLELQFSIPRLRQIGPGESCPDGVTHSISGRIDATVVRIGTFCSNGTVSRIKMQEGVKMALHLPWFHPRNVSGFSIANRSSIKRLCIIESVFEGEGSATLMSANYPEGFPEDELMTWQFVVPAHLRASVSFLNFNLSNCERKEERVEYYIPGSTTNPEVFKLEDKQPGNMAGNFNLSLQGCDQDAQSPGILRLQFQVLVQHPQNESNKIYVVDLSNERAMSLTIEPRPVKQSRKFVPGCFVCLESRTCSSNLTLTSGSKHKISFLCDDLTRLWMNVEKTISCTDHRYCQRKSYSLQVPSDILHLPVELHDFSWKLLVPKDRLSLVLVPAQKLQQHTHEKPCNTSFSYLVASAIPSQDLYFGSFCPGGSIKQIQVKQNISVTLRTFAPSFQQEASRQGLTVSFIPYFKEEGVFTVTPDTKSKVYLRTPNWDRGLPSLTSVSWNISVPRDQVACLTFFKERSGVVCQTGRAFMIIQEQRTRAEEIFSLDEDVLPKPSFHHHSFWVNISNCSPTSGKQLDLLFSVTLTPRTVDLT

[2] = target: T1, Human CDCP1, His Tag (KACTUS, Cat.No. …); test: as above; remark: listed apart in the source
[3] = target: T2, Human CDCP1, His Tag (KACTUS, Cat.No. CDC-HM101) (human) (UniProt Q9H5V8); test: ELISA of E. coli lysate supernatant of the clone on human CDCP1 antigen
T2 sequence (looked up): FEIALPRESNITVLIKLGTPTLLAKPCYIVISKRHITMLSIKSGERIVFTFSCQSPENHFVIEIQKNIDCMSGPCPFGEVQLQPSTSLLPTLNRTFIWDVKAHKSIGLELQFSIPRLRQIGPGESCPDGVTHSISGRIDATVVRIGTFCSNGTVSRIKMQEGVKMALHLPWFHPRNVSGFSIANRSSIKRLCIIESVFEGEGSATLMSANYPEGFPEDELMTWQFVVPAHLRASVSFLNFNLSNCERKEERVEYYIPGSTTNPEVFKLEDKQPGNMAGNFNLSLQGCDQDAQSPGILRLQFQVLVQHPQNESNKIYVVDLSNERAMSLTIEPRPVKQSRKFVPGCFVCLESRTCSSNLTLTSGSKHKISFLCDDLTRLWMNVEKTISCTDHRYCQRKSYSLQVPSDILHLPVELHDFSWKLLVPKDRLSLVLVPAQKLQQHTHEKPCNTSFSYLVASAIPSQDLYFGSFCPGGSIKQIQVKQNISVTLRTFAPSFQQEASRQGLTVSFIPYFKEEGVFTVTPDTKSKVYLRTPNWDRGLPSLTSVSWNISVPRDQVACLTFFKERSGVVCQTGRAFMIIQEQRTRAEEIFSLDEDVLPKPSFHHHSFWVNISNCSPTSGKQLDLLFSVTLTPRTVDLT

[4] = target: T3, human CDCP1 endogenously expressed on tumor cells (HCT116, SW480, HT-29, LNCaP) (human, UniProt Q9H5V8 30-836); test: cell-based or functional assay
T3 sequence (looked up): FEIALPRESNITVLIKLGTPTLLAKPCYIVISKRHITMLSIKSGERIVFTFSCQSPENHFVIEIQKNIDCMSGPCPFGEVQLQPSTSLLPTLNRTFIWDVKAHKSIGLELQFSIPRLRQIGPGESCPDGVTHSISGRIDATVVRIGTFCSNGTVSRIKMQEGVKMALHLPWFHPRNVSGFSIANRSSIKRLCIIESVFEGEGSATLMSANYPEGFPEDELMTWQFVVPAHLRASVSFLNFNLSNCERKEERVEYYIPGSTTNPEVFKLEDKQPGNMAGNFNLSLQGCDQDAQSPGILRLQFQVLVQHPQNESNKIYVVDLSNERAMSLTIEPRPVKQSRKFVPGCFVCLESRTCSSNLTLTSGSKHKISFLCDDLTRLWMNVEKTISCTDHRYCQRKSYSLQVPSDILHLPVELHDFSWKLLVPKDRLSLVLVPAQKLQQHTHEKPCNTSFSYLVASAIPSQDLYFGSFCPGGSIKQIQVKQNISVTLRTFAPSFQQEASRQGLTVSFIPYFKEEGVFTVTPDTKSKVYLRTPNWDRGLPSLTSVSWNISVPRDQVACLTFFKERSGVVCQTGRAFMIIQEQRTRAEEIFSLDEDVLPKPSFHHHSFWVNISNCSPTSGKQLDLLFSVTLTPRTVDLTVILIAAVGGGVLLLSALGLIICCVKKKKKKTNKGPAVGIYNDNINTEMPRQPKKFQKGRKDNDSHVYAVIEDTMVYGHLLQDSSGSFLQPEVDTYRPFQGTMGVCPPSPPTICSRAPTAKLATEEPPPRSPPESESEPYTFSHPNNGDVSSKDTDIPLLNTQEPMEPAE

[5] = target: T3, human CDCP1 endogenously expressed on …; test: flow cytometry on LNCaP cells endogenously expressing human CDCP1
[6] = target: T3, human CDCP1 endogenously expressed on …; test: flow cytometry on SW480 cells endogenously expressing human CDCP1
[7] = target: T3, human CDCP1 endogenously expressed on …; test: flow cytometry on HCT116 cells endogenously expressing human CDCP1

EC50 [1]: 0.0115 µg/mL
Top [1]: 1.9 OD450
bottom [1]: 0.0395 OD450
EC50 [2]: 0.0101 µg/mL
Top [2]: 1.35 OD450
bottom [2]: 0.041 OD450
B1: 25A11 (MHAB10-PC1) (antibody, human IgG1, kappa, L234A L235A, V domains shown)
VH: EVQLQQPGAELVKPGASVKMSCKASGYTFTSYYMYWVKQRPGQGLEWIGEINPSHGGTNFNEKFKNKATLTVDKSSSTVYMQLSSLTSEDSAVYYCTRGGNYPYFAMDYWGQGTSVTVSS
VL: DIQMTQTTSSLSASLGDRVTISCRASQDISNYLNWYQQKPDGTVKLLIYYTSRLHSGVPSRFSGSGSGTDYSLTISNLEQEDIATYFCQQGNTLPWTFGGGTKLEIKR
notes: Variable regions from US20080008719A1 on Human IgG1-Kappa constant regions; MW printed 146kDa; also called positive control antibody

OD450 [3]: 0.304
B2: MH1-6-C-2-50 (VHH)
VHH: QLQLVESGGGLVQPGGSLRLSCAASGSDVSANGMVWHRQAPGKQREWVAVISSSGSTNYADSVKGRFTISRDSDKNTMYLQMNNLKPEDTAVYLCGVAHYGQTYWGKGTLVTVSS

EC50 [5]: 2.21 µg/mL
EC50 [6]: 2.42 µg/mL
EC50 [7]: 11.9 µg/mL
B3: h14A043 (MHAB10-PC2) (antibody, human IgG1, kappa, L234A L235A, V domains shown)
VH: QVQLVQSGAEVKKPGSSVKVSCKASGFNIKDYYMNWVRQAPGQGLEWIGWIDPENANTIYDPKFQGRVTITADESTSTAYMELSSLRSEDTAVYYCYGSSYRFTYWGQGTLVTVSS
VL: EIVLTQSPATLSLSPGERATLSCSASSSVSYLYWYQQKPGQAPRPWIYLTSNLASGVPARFSGSGSGTDFTLTISSLEPEDFAVYYCQQWSSNPFTFGGGTKVEIKR
notes: Variable regions from US20230050380A1 on Human IgG1-Kappa constant regions; also called positive control antibody
EC50 (pM), endocytosis-mediated cell killing (Fab-ZAP, HCT116 cells) [4]: 41 pM
